Laboratory results: patent US20210163598A1 (BEIJING PROTEOME RESEARCH CENTER, published 2021)

Experiments:
[1] = target: T1, BTN3A1 overexpressed on BT474 cells (BT474-BTN3A1) (UniProt O00481 30-513, limits assumed); experiment: flow cytometric adhesion assay, human LSECtin detected with antibody CCB059
T1 construct: whole, on cells; Expressed from pIRES2-EGFP-BTN3A1 in BT474 cells
Source text: (§1) 3. Each cell in the step 2 was obtained by digestion and collection, and then was adhered to human LSECtin protein (R&D, 2947-CL) and mouse LSECtin-Fc protein, respectively, and the human LSECtin adhesion rate was detected by mouse anti-human LSECtin antibody CCB059. […] mouse LSECtin adhesion rate was detected by anti-IgG (Biolegend, 405307), and the adhesion ratio was detected by flow cytometry. Details of adhesion assay have been published in the method of “Tang L, Yang J, Tang X, et al. The DC-SIGN family member LSECtin is a novel ligand of CD44 on activated T cells[J], European journal of immunology. 2010, 40(4): 1185-1191”.

[2] = target: BTN3A2 overexpressed on BT474 cells (BT474-BTN3A2) (Homo sapiens (Human), UniProt P78410 30-334); experiment: flow cytometric adhesion assay, murine LSECtin-Fc detected with anti-IgG
Sequence of BTN3A2 overexpressed on BT474 cells (BT474-BTN3A2) (P78410 30-334 limits assumed): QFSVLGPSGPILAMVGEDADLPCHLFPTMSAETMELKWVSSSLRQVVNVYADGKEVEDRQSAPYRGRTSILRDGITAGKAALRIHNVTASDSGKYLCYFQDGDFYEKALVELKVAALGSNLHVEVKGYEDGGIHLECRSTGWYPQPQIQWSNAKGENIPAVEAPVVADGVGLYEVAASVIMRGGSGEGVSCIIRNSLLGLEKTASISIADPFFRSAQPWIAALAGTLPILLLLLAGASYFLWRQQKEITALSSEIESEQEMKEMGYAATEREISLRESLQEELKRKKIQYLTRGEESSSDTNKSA
Source text: as §1

[3] = target: T1, BTN3A1 overexpressed on BT474 cells …; experiment: as above
Source text: as §1

T1 sequence (O00481 30-513 limits assumed): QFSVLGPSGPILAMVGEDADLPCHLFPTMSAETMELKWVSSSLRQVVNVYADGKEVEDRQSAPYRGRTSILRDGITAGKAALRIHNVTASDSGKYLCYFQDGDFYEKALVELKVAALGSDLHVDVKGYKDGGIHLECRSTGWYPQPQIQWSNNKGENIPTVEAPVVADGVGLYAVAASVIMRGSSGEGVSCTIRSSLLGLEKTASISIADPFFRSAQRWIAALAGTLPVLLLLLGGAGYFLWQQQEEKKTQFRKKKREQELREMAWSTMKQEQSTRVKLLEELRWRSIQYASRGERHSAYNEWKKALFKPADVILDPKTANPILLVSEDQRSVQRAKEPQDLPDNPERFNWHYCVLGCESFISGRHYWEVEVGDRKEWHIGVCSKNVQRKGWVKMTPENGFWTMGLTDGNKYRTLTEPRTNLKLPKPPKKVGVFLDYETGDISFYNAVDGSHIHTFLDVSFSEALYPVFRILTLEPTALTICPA

Row | binding result [1] | binding result [2] | binding result [3] | Binder
1 | no binding |  |  | human LSECtin protein (R&D, 2947-CL) (ligand, Bought recombinant protein (R&D 2947-CL); also called human recombinant protein LSECtin; Liver Sinusoidal Endothelial Cells lectin) SKASTERAALLDGHDLLRTNASKQTAALGALKEEVGDCHSCCSGTQAQLQTTRAELGEAQAKLMEQESALRELRERVTQGLAEAGRGREDVRTELFRALEAVRLQNNSCEPCPTSWLSFEGSCYFFSVPKTTWAAAQDHCADASAHLVIVGGLDEQGFLTRNTRGRGYWLGLRAVRHLGKVQGYQWVDGVSLSFSHWNQGEPNDAWGRENCVMMLHTGLWNDAPCDSEKDGWICEKRHNC
2 |  | no binding | no binding | mouse LSECtin-Fc protein (Fc fusion, UniProt Q8BNX1 52-294, looked up, also called murine LSECtin-Fc; murine LSECtin; not shown: Fc part) LLSSASSKLRVLLSHQDLLRTNASEQKMTLSSLKDDIGACRNCCSVTKAQLQTTLAEFKDIQAKLMEQESILKELQERVTQDLAKASRDRENIRSELFQALEAVKRQNSSCEQCPPSWLPFQGSCYYFSETQATWDTAQSYCGGQGAHLVIVRGLNEQGFLSQHTRGRGYWLGLRAVRHLNKIQGYRWVDGASLNFSHWNSGEPNDSRGHEDCIMMLHSGLWNDAPCTNERDGWICEKRSSCY
